Source: patent publication US20240209104A1 (SHANGHAI ACEMAB, published 2024)
Changes are numbered by the printed parent chain.

T1: hOX40-EC-His (human, UniProt P43489 29-214)
T1 construct: extracellular domain; bought protein; also called recombinant human OX40 antigen protein; human OX40 extracellular segment antigen; not shown: 6 His label
T1 sequence (looked up): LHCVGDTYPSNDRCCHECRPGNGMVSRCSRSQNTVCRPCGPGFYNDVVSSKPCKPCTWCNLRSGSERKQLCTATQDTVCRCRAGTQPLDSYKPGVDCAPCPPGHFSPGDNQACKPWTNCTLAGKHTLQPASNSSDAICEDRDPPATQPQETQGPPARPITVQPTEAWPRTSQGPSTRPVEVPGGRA

T2: OX40 on OX40 over-expressed cells (UniProt P43489 29-277)
T2 construct: whole, on cells; human implied; also called OX40 expressed on the surface of OX40 expressing cell
T2 sequence (looked up): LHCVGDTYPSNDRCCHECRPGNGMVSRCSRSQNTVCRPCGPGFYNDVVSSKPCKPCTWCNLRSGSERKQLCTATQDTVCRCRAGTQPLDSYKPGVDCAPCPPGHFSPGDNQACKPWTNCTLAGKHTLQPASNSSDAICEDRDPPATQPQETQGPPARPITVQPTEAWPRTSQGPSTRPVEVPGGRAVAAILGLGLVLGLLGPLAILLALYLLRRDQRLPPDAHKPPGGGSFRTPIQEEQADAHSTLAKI

B1: 28E3-4 (antibody, V domains shown)
VH: QVQLQESGPGLVKPSGTLSLTCAVSGGSISRSNWWTWVRQSPGKGLEWIGEIYHSGNTNYNPSLKSRVTISLDKSKNQFSLKLSSVTAADTAVYYCASSGSLYMDVWGKGTTVTVSS
VL: DIQMTQSPSSLSASVGDRVTISCRASQSTSSYLNWYQQKPGKAPRLLIYGASSLQSGVPSRFSGSGSGTDFILTISSLQPEDFATYYCQQSYSIPITFGQGTRLEIKR
notes: hybridoma antibody, tested as culture supernatant
B2: 29B8-3 (antibody, V domains shown)
VH: QVQLQESGPGLVKPSGTLSLTCAVSGVSISSSNWWSWVRQPPGKGLEWIGEIYHSGNTNYNPSLKSRVTISVDKSKNQFSLKLSSVTAADTAVYYCAETSTITTNYWGQGTLVTVSS
VL: B1 VL with S22T, S28T, T29I, R45K, G50A, G66E, I72T, S91T
notes: as for B1
B3: 4D9-12 (antibody, V domains shown)
VH: B1 VH with R31S, T36S, S41P, N59I
VL: B1 VL with S12L, A13S, Q27H, S28G, T29S, S31T, S67F, L78M
notes: as for B1
B4: 15A7-6 (antibody, V domains shown)
VH: QVQLQESGPGLVKPSGTLSLTCAVSGGSINSSSWWSWVRQPPGKGLEWIGEIYHSGDTNYNPSLKSRVAISVDKSKNQFSLKLSSVTAADTAVYYCARDQADYFGSGNYVYWGQGTLVTVSS
VL: EIVLMQYPGTLSLSSGERRVLSCRPSQSVSSSYLAWYQQKPGQAPRLLIYGASSRASGIPDRFSGSGSGTDFTLTISRLEPEDFAVYYCQQYGSLPITFGQGTRVEIKR
notes: as for B1
B5: 21D2-3 (antibody, V domains shown)
VH: QVQLVESGGGLVKPGGSLRLSCAASGFTFSDYYMSWIRQAPGKGLEWVSYISSSGTTIYCADSVKGRFTISRDNAKNSLYLQMNSLRAEDTAVYYCARDSSTWYEGNYFDYWGQGTLVTVSS
VL: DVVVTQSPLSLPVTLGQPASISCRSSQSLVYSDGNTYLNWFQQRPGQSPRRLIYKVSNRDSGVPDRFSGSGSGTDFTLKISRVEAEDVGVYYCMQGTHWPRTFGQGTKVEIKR
notes: as for B1
B6: 48D10-5 (antibody, V domains shown)
VH: QVQLVQSGAEVKKPGASMKVSCKASGYTFANFGINWVRQAPGQGLEWMGWISAYNGYTNYAQQFQGRITMTTDTSTSTAYMELRSLRSDDTAIYYCVIWFGELLSFDYWGQGTLVTVSS
VL: DIQMTQFPSSLSASVGDRVTITCRASQDISNYLAWFQQKPGKAPKSLIYAASSLQSGVPSKFSGNGFGTDFTFPLSRMQPEDFASSYCQQYNNYTFTFGRGTKVEIKR
notes: as for B1
B7: 29A9-5 (antibody, V domains shown)
VH: QVQLQESGPGLVKPSGTLSLTCAVFGDSISSSYWWSWVRQPPGKGLEWIGEIYHSGSTHYNPSLKSRVTISVDKSKNHLSLKLISVTDADTAVYYCAGEDTGWPFDFWGQGTLVTVSS
VL: not shown
notes: as for B1
B8: 24E10-4 (antibody, V domains shown)
VH: QVQMQESGPGLVKPSGTLSLTCAVSGGSISSSKWWSWVRQPPGKGLEWIGEIYHSGSTNYNPSLKSRVTISIDKSKNQFSLRLTSVTAADTAVYYCARGDVLLWFGGQGTLVTVSS
VL: EIVLTQSPGTLSLSPGERATLSCWASQSVSSTYLAWYQQKPGQAPRLLIYGASIRATGIPDRFSGSGSGTDFTLTISSLEPEDFAVYYCQQYGSSPITFGQGTRLEIKR
notes: as for B1
B9: 26C3-4 (antibody, V domains shown)
VH: B8 VH with M4L, A23D, K33N, I72V, F79V, R82K, T84N, V101I
VL: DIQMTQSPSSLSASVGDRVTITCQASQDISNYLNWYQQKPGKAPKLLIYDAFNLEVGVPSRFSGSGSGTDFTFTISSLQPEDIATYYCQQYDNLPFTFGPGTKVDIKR
notes: as for B1
B10: 17D5-11 (antibody, V domains shown)
VH: QVQLQESGPGLVKPSETLSLTCAVSGGSINSTNWWSWVRQPPGKGLEWIGEIYHSGSTNYNPSLKSRVTISVDKSKNQFSLKLSSVTAADTAVYYCARGGAVALDYWGQGTLVTVSS
VL: B8 VL with T10P, E17D, W24R, S28T, T32S, Q38L, S78R, S94N
notes: as for B1
B11: 18F5-2 (antibody, V domains shown)
VH: B8 VH with T21I
VL: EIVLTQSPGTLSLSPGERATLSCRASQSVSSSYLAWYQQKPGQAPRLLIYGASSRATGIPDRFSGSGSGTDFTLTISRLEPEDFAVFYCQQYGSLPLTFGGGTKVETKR
notes: as for B1
B12: 24F10-1 (antibody, V domains shown)
VH: QVQLQESGPGLVKPSGNLSLTCVVSGASIINNNWWTWVRQSPGKGLEWIGEIFHSGTTNYNPSLKNRVTISVDKAKNQFSLNLKSVTAADTAVYYCVAYVSGTYYNFDYWGQGTLVTVSS
VL: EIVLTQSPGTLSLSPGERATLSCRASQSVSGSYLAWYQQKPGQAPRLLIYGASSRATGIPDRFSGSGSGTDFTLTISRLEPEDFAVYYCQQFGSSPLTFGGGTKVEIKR
notes: as for B1
B13: 24F8-7 (antibody, V domains shown)
VH: QVQLQESGPGLVKPSGTLSLTCAVSGGSISSYNWWSWVRQPPGKGLEWIGEIYHSGSTNYNPSLKSRVTISVDKSKNQFSLKLSSVTAADTAVYYCARDEDYYGSGNYYHWGQGTLVTVSS
VL: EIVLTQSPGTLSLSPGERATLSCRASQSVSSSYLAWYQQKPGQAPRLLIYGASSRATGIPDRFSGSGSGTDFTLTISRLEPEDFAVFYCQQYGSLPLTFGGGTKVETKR
notes: as for B1
B14: 18F11-4 (antibody, V domains shown)
VH: B13 VH
VL: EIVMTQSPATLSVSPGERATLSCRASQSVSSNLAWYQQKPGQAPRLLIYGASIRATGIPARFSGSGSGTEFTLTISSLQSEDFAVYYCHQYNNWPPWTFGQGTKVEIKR
notes: as for B1
B15: 21F9-12 (antibody, V domains shown)
VH: B13 VH with S57N, V93M, E100Q, Y108F, H110Y
VL: not shown
notes: as for B1
B16: 35B8-6 (antibody, V domains shown)
VH: QITLKESGPTLVKPTQTLTLTCTFSGFSLSTSAVNVGWIRQPHGKALEWLALIFWNDDKRYSPSLKNRLTITKDTSKDQVVLTMSNMDPVDTATYYCAQYNWNSSFDYWGQGTLVTVSS
VL: DIQMTQSPSSLSASLGDRVTITCQASQDINTYLNWYQQKPGKAPKVLIYDASNLETGVPSRFSGSGSGTDFTFTISSLQPEDIATFYCQQYDNLITFGGGTKVEIKR
notes: as for B1
B17: 21F3-11 (antibody, V domains shown)
VH: QVQLQESGPGLVKPSGTLSLTCAVSGGSISSSNWWSWVRQPPGKGLEWIGEIYHGGSTNYNPSLKSRITISVDKSKNQFSLKLSSVTAADTAMYYCATLPGYSSGWFDSWGQGTLVTVSS
VL: EIVLMQSPGTLSLSPGERATLSCRASQSVSSSYLAWYQQKPGQAPSLLIYGASNRASGIPDRFSGSGSGTDFTLTITRLEPEDFAVYYCQQYGSSPLTFGGGTRVEIKR
notes: as for B1
B18: 24A12-12 (antibody, V domains shown)
VH: QVQLQESGPGLVKPAGTLSLTCAVSGGSISSSNWWNWVRQPPGKGLEWIGEIYHSGSTNYNPSLKSRVTISVDTSKNQFSLKLTSVTAADTAVYYCARTGPTVTTDYWGQGTLVTVSS
VL: B17 VL with M5T, S46R, N54Y, S57T, I59M, D61E, T77S, V86I, S94R, R104K
notes: as for B1
B19: 20D2-12 (antibody, V domains shown)
VH: QVQLVESGGGLVKPGGSLRLSCAASGFTFSDYYMSWIRQAPGRGLEWISYISGSDSTIYYEDSVMGRFTISRDNAKNSLYLQMNSLRAEDTAVYYCARDRDVYGYSGYGYFDYWGQGTLVTVSS
VL: B8 VL with W24R, T32R, I54N, I59M, S78R
notes: as for B1

Biological target: T1, hOX40-EC-His
Assay: ELISA, supernatant stoste, coated OX40 (CK60)

450 nm light absorption	Binder
2.27 OD450	B1
2.46 OD450	B2
2.39 OD450	B3
2.25 OD450	B4
2.03 OD450	B5
2.45 OD450	B6
1.93 OD450	B7
2.51 OD450	B8
2.32 OD450	B9
2.46 OD450	B10
2.35 OD450	B11
2.41 OD450	B12
2.4 OD450	B13
1.87 OD450	B14
2.37 OD450	B15
1.47 OD450	B16
2.58 OD450	B17
2.81 OD450	B18
3.81 OD450	B19

Biological target: T1, hOX40-EC-His
Assay: ELISA, supernatant diluted 100 times, coated OX40 (CK60)

450 nm light absorption	Binder
2.26 OD450	B1
2.36 OD450	B2
1.26 OD450	B3
1.4 OD450	B4
1.38 OD450	B5
2.35 OD450	B6
0.878 OD450	B7
2.4 OD450	B8
1.91 OD450	B9
2.32 OD450	B10
2.2 OD450	B11
2.2 OD450	B12
2.14 OD450	B13
1.32 OD450	B14
2 OD450	B15
0.215 OD450	B16
2.61 OD450	B17
2.8 OD450	B18
2.32 OD450	B19

Biological target: T2, OX40 on OX40 over-expressed cells
Assay: flow cytometry, supernatant on OX40 over-expressed cells
Experimental: After collecting OX40 over-expressed cells by 200G centrifugation, wash them with PBS containing 3% FCS, and then resuspend them in 2.5 ml of PBS containing 3% FCS. […] Finally, the cells were resuspended in […] of PBS containing 3% FCS for detection by flow cytometry.

Y586 channel PE fluorescence value	Binder
195000	B1
388000	B2
187000	B3
181000	B4
202000	B5
358000	B6
221000	B7
344000	B8
416000	B9
475000	B10
432000	B11
274000	B12
437000	B13
402000	B14
424000	B15
243000	B16
171000	B17
343000	B18
540000	B19

Biological target: T1, hOX40-EC-His
Assay: ELISA, supernatant 1:100, coated hOX40-EC-His

IgG ELISA (1:100)	Binder
2.1 OD650	B1
2.3 OD650	B3
2.1 OD650	B5
2.1 OD650	B16
1.9 OD650	B17
